From PMC11633826, “Site-specific π-clamp-mediated radiosynthesis of ^68Ga and ^18F PET radiopharmaceuticals” (Chemical Communications (Cambridge, England), 2024) come the findings set out here.

As a reminder, the logD is lipophilicity at a set pH, counting ionised and neutral species. Higher therefore signals higher lipophilicity. As a reminder, the tissue uptake is the percentage of the injected dose found per gram of tissue.

One data set in a line: physchem. The settings on record: pH 7.4.
Data set [1] is classed as in vitro ADME, human. The procedure:
(§1) Stability of [18F]AlF-4: [18F]AlF-4 (3-5 MBq) was incubated at 37 °C in RPMI media (500 µL). Aliquots of the
(§2) solutions were sampled at 1, 2, 3, 4 and 5 h and diluted in H 2O for C18 RP-HPLC analysis. The diluted solutions
(§3) were centrifuged at 13,000 g for 5 min prior to analysis.
(§4) Stability of [68Ga]Ga-5: A sample of [68Ga]Ga-5 was added to serum (with or without 5 mM reduced glutathione),
(§5) in a ratio of one part radiolabelled solution to four parts of serum by volume and incubated at 37 °C. Aliquots
(§6) were taken for SE-HPLC analysis at t = 1 h, 2 h, 3 h, 4 h and 5 h.
(§7) Cell culture: The rat cancer cell line AR42J (cultured in RPMI -1640) was purchased from American Type Culture
(§8) Collection. Growth media were supplemented with 10 % foetal bovine serum (FBS), 100 units/mL penicillin , 100
(§9) µg/mL streptomycin, and 2 mM ʟ-glutamine. Cell lines were harvested twice weekly using a formulation of 0.25
(§10) % trypsin/0.53 mM EDTA in Phosphate Buffered Salt (PBS) Solution without calcium and magnesium, which was
then neutralised with the appropriate medium containing FBS. Cells were maintaine d in a humidified chamber
containing 5 % CO2 at 37 °C.
SSTR2 in vitro binding studies: [68Ga]Ga-5 was prepared as per above. The radioconjugate was then diluted with […]
(§11) by PBS wash (500 μL x 1). The radioactivity associated with each fraction were then counted using a gamma […]

The nature of data set [2]: in vivo. The settings on record: mouse. Here is the method:
as §1, §2, §3, §4, §5, §6, §7, §8, §9, §10
then neutralised with the appropriate medium containing FBS. […]
as §11
isotropic voxel size. Images were co-registered and analysed using VivoQuant v.3.0 (Invicro). […]
(ROIs) were delineated for PET activity quantification in specific organs. Uptake in each ROI was expressed as a […]

Data set [3] can be described thus: in vivo. The settings on record: BALB/c, mouse, iv, total radioactivity, Ex vivo biodistribution. Here is the method: page 9: mice under 0.8-1.5% isoflurane in oxygen anaesthesia and warmed to 37 °C for the duration of the experiment. Mice were administered [68Ga]Ga-5 (∼2-3 μg, ∼0.8-1.5 MBq) in 200 μL of PBS via intravenous tail injection. Dynamic PET scans were acquired for up to 1 h post injection, followed by a CT scan for anatomical visualisation (480 projections; helical acquisition; 55 kVp; 600 ms exposure time). PET/CT datasets were reconstructed using a Monte Carlo-based full-3D iterative algorithm (TeraTomo, Mediso) with 4 iterations, 6 subsets, and 0.4 mm isotropic voxel size. Images were co-registered and analysed using VivoQuant v.3.0 (Invicro). Regions of interest (ROIs) were delineated for PET activity quantification in specific organs. Uptake in each ROI was expressed as a percentage of injected dose per gram of tissue (% ID/g). Biodistribution studies: Following PET/CT imaging study, mice (n=4/group, one mouse from each group was not subjected to PET/CT imaging) were culled by cervical dislocation, organs were dissected, weighed, and gamma- counted along with standards prepared from the corresponding sample of injected radiolabelled conjugates. Conjugate uptake was calculated as a percentage of injected dose per gram (% ID/g) of tissue.

Bridge positions count the residues as written; N and C are the ends. Square brackets hold non-standard residues; d marks the D form. Peptide text beside a SMILES is read from it. * marks the point of attachment. X1 = O=C(O)CN1CCN(CC(=O)O)CCN(C(CCC(=O)NCCNC(=O)CCOCCOCCOCCOCCOCCC(=O)NCCSc2c(F)c(F)c(-c3c(F)c(F)c(*)c(F)c3F)c(F)c2F)C(=O)O)CC1

In the data set “physchem”, `C[C@@H](O)[C@H](NC(=O)[C@@H]1CSSC[C@H](NC(=O)[C@@H](Cc2ccccc2)NC(=O)[C@H](Cc2ccccc2)NC(=O)[C@@H]2CCCN2C(=O)[C@H](CSc2c(F)c(F)c(-c3c(F)c(F)c(SCCNC(=O)CCOCCOCCOCCOCCOCCC(=O)NCCNC(=O)CCC(C(=O)O)N4CCN(CC(=O)O)CCN(CC(=O)O)CC4)c(F)c3F)c(F)c2F)NC(=O)[C@@H](N)Cc2ccccc2)C(=O)N[C@@H](Cc2ccc(O)cc2)C(=O)N[C@H](Cc2c[nH]c3ccccc23)C(=O)N[C@@H](CCCCN)C(=O)N[C@@H]([C@@H](C)O)C(=O)N1)C(=O)O` (stereo partly shown) [[68Ga]Ga-5, [^68Ga]Ga-NODAGA-FCPF-TATE, metal not drawn] (H-FC(X1)PF[dF]CY[dW]KTCT-OH; disulfide 6-11) had a logD of -0.4 ± 0.03. In addition, the “dissociation of the radiotracer in human serum” value in data set [1] amounted to 2%. Moreover, the tissue uptake at 1 h in “in vivo [2]” (female, BALB/c, iv, total radioactivity, PET 68Ga radioactivity remaining in circulation) was found to be 13.8 ± 1.61 %ID/g; in “in vivo [3]” (Bone), 0.95 %ID/g; in the data set “in vivo [3]” (Brain) it was 1.29 %ID/g; in the data set “in vivo [3]” (Pituitary gland), 6.04 %ID/g; in the data set “in vivo [3]” (female, Adrenal glands) it was 6.45 %ID/g; in “in vivo [3]” (female, Blood) it was 27.2 %ID/g. For the same molecule, the tissue uptake at 1 h in “in vivo [3]” (female, Heart) was 7.89 %ID/g; in “in vivo [3]” (female, Kidneys), 9.57 %ID/g; in “in vivo [3]” (female, Liver), 54.6 %ID/g; in “in vivo [3]” (female, Lower GI), 2.76 %ID/g; in “in vivo [3]” (female, Lungs), 10.6 %ID/g; in the data set “in vivo [3]” (female, Muscle), 0.69 %ID/g. The tissue uptake at 1 h in “in vivo [3]” (female, Pancreas) was found to be 3.49 %ID/g; in the data set “in vivo [3]” (female, Spleen), 20.8 %ID/g; in “in vivo [3]” (female, Stomach), 2.17 %ID/g; in the data set “in vivo [3]” (female, Upper GI) it was 5.64 %ID/g. Also, the “route of clearance from the blood pool” value in “in vivo [2]” is given as “predominantly hepatically”.
